± gives the standard deviation of the averaged measurements.
tested on: ATP; assay: switch fluorescence ratio, 500 uM ATP over buffer (Cy3 cluster intensity, sum of 5 cycles each) (fold (ratio)); higher = stronger signal-on switching upon ATP binding; sequences stand for … in TCGTCGGCAGCGTCAGATGTGTATAAGAGACAGTTTTTTTTTTTTTTTTTTTTTTTTT…TC; details: aptamer strand: ATP DNA aptamer (quencher-CACCTGGGGGAGTATTGCGGAGGAAGG + anchor), 100 nM annealed; ATP concentration: 500 uM
How it was run: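 Clusters carrying Cy3-labelled switching strands on a modified Illumina MiSeq flow-cell were annealed to 100 nM quencher-labelled ATP aptamer and imaged in selection buffer. They were imaged again after 15 min with 500 uM ATP at 22 °C, over five buffer/ATP cycles with NaOH stripping and re-annealing in between. For each cluster, the fluorescence ratio is the summed Cy3 intensity of the target cycles divided by that of the buffer cycles, averaged per switch-domain sequence. Clusters outside 100-1000 RFU were left out.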
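Further: ATP exposure 15 min at 22 °C before imaging.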

Sequence | switch fluorescence ratio
TGTTTCCGTG | 0.9766 ± 0.0027
TGTTTCTCTG | 1.01 ± 0.023
TGTTTGAAAA | 0.953 ± 0.027
TGTTTGAAGA | 1 ± 0.028
TGTTTGCCAG | 1 ± 0.05
TGTTTGGATG | 0.973 ± 0.029
TGTTTGGATT | 0.988 ± 0.013
TGTTTGGCGG | 0.966 ± 0.02
TGTTTGGCTT | 0.9619 ± 0.0079
TGTTTGGTAA | 0.981 ± 0.024
TGTTTGTAAA | 1.01 ± 0.029
TGTTTGTAGG | 0.97 ± 0.043
TGTTTGTCA | 0.989 ± 0.022
TGTTTGTGAG | 1 ± 0.045
TGTTTGTGCG | 0.9633 ± 0.0057
TGTTTGTTT | 1.03 ± 0.025
TGTTTTAAAA | 0.99 ± 0.027
TGTTTTAGCT | 0.973 ± 0.021
TGTTTTAGG | 0.998 ± 0.048
TGTTTTATCA | 0.9742 ± 0.0037
TGTTTTCGCA | 1 ± 0.021
TGTTTTGAGA | 1 ± 0.023
TGTTTTGATC | 0.977 ± 0.029
TGTTTTGGCG | 0.959 ± 0.018
TGTTTTGGTT | 0.991 ± 0.025

Sequence | switch fluorescence ratio
TGTTTTGTGG | 1.02 ± 0.018
TGTTTTTAGA | 1.01 ± 0.019
TGTTTTTGGG | 0.989 ± 0.029
TGTTTTTGGT | 0.978 ± 0.016
TGTTTTTTAA | 0.99 ± 0.044
TGTTTTTTGC | 0.995 ± 0.056
TTAAAAAATT | 1.02 ± 0.039
TTAAAAACCT | 1.65 ± 0.62
TTAAAAAGTG | 1.02 ± 0.068
TTAAAAATCG | 1.02 ± 0.037
TTAAAAATGT | 0.958 ± 0.069
TTAAAACTAT | 1.015 ± 0.0089
TTAAAAGAGG | 1.01 ± 0.014
TTAAAAGGTC | 1.027 ± 0.0083
TTAAAATCAC | 1.09 ± 0.077
TTAAAATCAG | 1.01 ± 0.027
TTAAAATCGC | 0.957 ± 0.022
TTAAAATTCT | 1.04 ± 0.06
TTAAACCGCT | 1.08 ± 0.053
TTAAACGGAC | 1.36 ± 0.021
TTAAACGGTA | 1.03 ± 0.029
TTAAACTTAT | 1.047 ± 0.0024
TTAAAGATTG | 0.987 ± 0.014
TTAAAGATTT | 1.07 ± 0.098
TTAAAGCACG | 1.07 ± 0.023

Sequence | switch fluorescence ratio
TTAAAGGCGT | 0.982 ± 0.021
TTAAAGGGTA | 0.992 ± 0.054
TTAAAGGTGG | 0.984 ± 0.042
TTAAATATGG | 1.02 ± 0.033
TTAAATGAAT | 0.991 ± 0.022
TTAAATGTGT | 1.02 ± 0.018
TTAAATGTTT | 0.994 ± 0.015
TTAAATTGGT | 0.99 ± 0.025
TTAAATTTGG | 1.01 ± 0.027
TTAACAAGGA | 1.018 ± 0.0085
TTAACCAGCA | 1.05 ± 0.032
TTAACCCGCC | 1.16 ± 0.14
TTAACGGTCG | 1.02 ± 0.072
TTAACGTGTG | 0.975 ± 0.029
TTAACTTGAG | 0.9831 ± 0.0047
TTAAGAAGCC | 0.987 ± 0.049
TTAAGACTTT | 1.02 ± 0.032
TTAAGATATT | 0.9797 ± 0.0066
TTAAGATGAG | 0.961 ± 0.035
TTAAGATTCC | 1.1 ± 0.028
TTAAGATTTA | 0.9933 ± 0.0077
TTAAGCACCT | 1.304 ± 0.013
TTAAGCCCAT | 1 ± 0.011
TTAAGCCGGT | 1.04 ± 0.036
TTAAGCGGCG | 0.992 ± 0.016

Sequence | switch fluorescence ratio
TTAAGGCCAC | 1.034 ± 0.0055
TTAAGGCCGG | 1.03 ± 0.025
TTAAGGCGCT | 0.976 ± 0.019
TTAAGGCGGA | 1.04 ± 0.023
TTAAGGCTTT | 0.984 ± 0.025
TTAAGGGAAA | 1.02 ± 0.02
TTAAGGGGAA | 1.06 ± 0.063
TTAAGGGTAA | 0.967 ± 0.047
TTAAGGGTAT | 1 ± 0.011
TTAAGGGTGT | 1.02 ± 0.04
TTAAGGTCCG | 0.987 ± 0.047
TTAAGGTGTG | 1.02 ± 0.041
TTAAGGTTAG | 0.976 ± 0.024
TTAAGTCAAG | 0.98687 ± 0.00044
TTAAGTCCGC | 1.17 ± 0.034
TTAAGTGGAA | 0.997 ± 0.049
TTAAGTGTAC | 1.03 ± 0.026
TTAAGTGTGG | 0.973 ± 0.031
TTAAGTGTTT | 1 ± 0.022
TTAAGTTAGC | 1.06 ± 0.045
TTAAGTTGAG | 0.983 ± 0.021
TTAAGTTTGT | 0.994 ± 0.022
TTAAGTTTTG | 1.016 ± 0.0078
TTAATAAAC | 1.01 ± 0.017
TTAATAAAGG | 1.02 ± 0.018

Sequence | switch fluorescence ratio
TTAATAACGG | 1.04 ± 0.06
TTAATAAGCT | 0.978 ± 0.022
TTAATAAGTG | 0.964 ± 0.028
TTAATAATTC | 0.996 ± 0.032
TTAATACCGC | 1.12 ± 0.022
TTAATATGCT | 0.997 ± 0.049
TTAATATGGT | 0.99 ± 0.04
TTAATATTTT | 0.985 ± 0.026
TTAATCTAGC | 0.991 ± 0.021
TTAATCTGGG | 0.992 ± 0.016
TTAATCTTTC | 1.09 ± 0.05
TTAATGAGTG | 0.99 ± 0.015
TTAATGGTTG | 0.975 ± 0.032
TTAATGGTTT | 1.11 ± 0.17
TTAATGTGGC | 0.986 ± 0.015
TTAATTAAGT | 0.987 ± 0.04
TTAATTACCA | 0.984 ± 0.029
TTAATTATCT | 1.01 ± 0.051
TTAATTCGCT | 1.04 ± 0.098
TTAATTGTTC | 1.06 ± 0.068
TTAATTTAAA | 0.9752 ± 0.0031
TTAATTTGTC | 1.03 ± 0.061
TTAATTTTTT | 0.995 ± 0.037
TTACAAAATA | 1.03 ± 0.048
TTACAAATTT | 0.9647 ± 0.0066

Sequence | switch fluorescence ratio
TTACAAGATT | 1.03 ± 0.0047
TTACACGAGA | 1.054 ± 0.0057
TTACACGTTC | 1.03 ± 0.018
TTACATATGA | 1.04 ± 0.016
TTACATTTTT | 1.05 ± 0.06
TTACCCCCGT | 1.56 ± 0.079
TTACCCGTCA | 1.06 ± 0.044
TTACCCTATA | 1.07 ± 0.029
TTACCGAGGT | 1.03 ± 0.031
TTACCTGGCT | 1.1 ± 0.059
TTACGAACCG | 1.23 ± 0.026
TTACGACGAC | 2.21 ± 0.096
TTACGATGGT | 1.003 ± 0.0032
TTACGGCCCG | 1.05 ± 0.051
TTACGGGTAA | 0.99 ± 0.01
TTACGGTAAC | 2.05 ± 1.1
TTACGGTATG | 1.09 ± 0.035
TTACGGTGGA | 0.9963 ± 0.0033
TTACGTCATA | 1.67 ± 0.95
TTACGTGCAT | 1.01 ± 0.011
TTACGTTCCT | 1.5 ± 0.13
TTACGTTTGT | 1.02 ± 0.07
TTACGTTTTT | 0.999 ± 0.011
TTACTAAGCT | 1.03 ± 0.069
TTACTAGGCC | 1.01 ± 0.034

Sequence | switch fluorescence ratio
TTACTAGTTT | 0.981 ± 0.02
TTACTATGGC | 0.966 ± 0.032
TTACTATGTT | 0.999 ± 0.018
TTACTGATCC | 1.04 ± 0.019
TTACTGCATT | 1.11 ± 0.014
TTACTGCTTT | 1.02 ± 0.025
TTACTGGTTA | 1.01 ± 0.029
TTACTTACGA | 1.4167 ± 0.00061
TTACTTATAA | 1.04 ± 0.018
TTACTTCAGG | 1.032 ± 0.0026
TTACTTGCAT | 1.065 ± 0.0059
TTACTTGTGG | 0.988 ± 0.024
TTACTTGTTT | 1 ± 0.023
TTACTTTCCT | 1.12 ± 0.086
TTACTTTGGC | 1 ± 0.022
TTACTTTGTT | 1.02 ± 0.023
TTAGAACATC | 1.009 ± 0.0053
TTAGAAGGCA | 1.03 ± 0.036
TTAGAAGGG | 0.965 ± 0.012
TTAGAAGGGG | 0.993 ± 0.015
TTAGAAGTCA | 1.0063 ± 0.00067
TTAGAATTAA | 0.9724 ± 0.0063
TTAGACATAT | 1.02 ± 0.021
TTAGACGAGC | 0.986 ± 0.031
TTAGAGAACC | 1.01 ± 0.016

Sequence | switch fluorescence ratio
TTAGAGAGTG | 0.984 ± 0.044
TTAGAGCGTT | 1.72 ± 1
TTAGAGGACG | 1.02 ± 0.025
TTAGAGGGTG | 1.12 ± 0.018
TTAGAGTTGT | 0.999 ± 0.034
TTAGAGTTTA | 0.975 ± 0.014
TTAGATAGGA | 0.999 ± 0.01
TTAGATCAGC | 0.99 ± 0.03
TTAGATGGGA | 1.005 ± 0.0047
TTAGATTGGG | 0.9736 ± 0.0075
TTAGCATTTA | 1.03 ± 0.013
TTAGCGGTCA | 1.01 ± 0.021
TTAGCGTATG | 1.01 ± 0.031
TTAGCTACCT | 1.11 ± 0.19
TTAGCTATCT | 1.04 ± 0.021
TTAGCTATTA | 0.9858 ± 0.0043
TTAGCTGTTA | 1 ± 0.016
TTAGCTTGG | 0.999 ± 0.061
TTAGGAAGAT | 1.36 ± 0.59
TTAGGAATGT | 1.03 ± 0.047
TTAGGACAGC | 1.02 ± 0.021
TTAGGAGATT | 1.08 ± 0.14
TTAGGAGCGG | 1.04 ± 0.047
TTAGGAGGTG | 1.08 ± 0.018
TTAGGATGA | 1.01 ± 0.027
